# Results as given in patent publication US20220401557A1 (Chugai, published 2022).
# Biological target: CD3 on NFAT-RE-luc2-Jurkat cells (human, UniProt P07766 23-207)
# Test: cell-based or functional assay
# Sequence of CD3 on NFAT-RE-luc2-Jurkat cells (P07766 23-207): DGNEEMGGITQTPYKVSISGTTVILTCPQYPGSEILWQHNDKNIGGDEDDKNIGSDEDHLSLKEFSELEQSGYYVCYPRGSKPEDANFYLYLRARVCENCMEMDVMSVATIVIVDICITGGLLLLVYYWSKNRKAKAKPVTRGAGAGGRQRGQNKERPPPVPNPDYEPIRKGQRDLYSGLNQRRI
Binder,"increase rate due to the protease treatment (luciferase, uPA-treated / untreated), antibody 0.1 nM [ratio]","increase rate due to the protease treatment (luciferase, uPA-treated / untreated), antibody 1 nM [ratio]"
"ANuPA20/GLS//GCH065 (bispecific antibody, human IgG1, kappa, N297A) heavy 1: QDGNEEMGGITQTPYKVSISLSGRSDNHGGGSQVQLVESGGGLVQPGRSLRLSCAASGFTFSNAWMHWVRQAPGKGLEWVAQIKDKANGYNAYYAESVKGRFTISRDDSKNSIYLQMNSLKTEDTAVYYCRYVHYTTYAGFSYKFGVDAWGQGTTVTVSSASTKGPSVFPLAPSSKSTSGGTAALGCLVKDYFPEPVTVSWNSGALTSGVHTFPAVLQSSGLYSLSSVVTVPSSSLGTQTYICNVNHKPSNTKVDKKVEPKSCDKTHTCPPCPAPELRGGPKVFLFPPKPKDTLMISRTPEVTCVVVDVSHEDPEVKFNWYVDGVEVHNAKTKPREEQYASTYRVVSVLTVLHQDWLNGKEYKCKVSNKALPAPIEKTISKAKGQPREPQVYTLPPSRKEMTKNQVSLTCLVKGFYPSDIAVEWESNGQPENNYKTTPPYLDSDGSFFLYSKLTVDKSRWQQGNVFSCSVMHEALHNHYTQKSLSLSP light 1: DIVMTQSPLSLPVTPGEPASISCRSSQSLVHSNRNTYLHWYQQKPGQAPRLLIYKVSNRFSGVPDRFSGSGSGTDFTLKISRVEAEDVGVYYCGQGTQVPYTFGQGTKLEIKRTVAAPSVFIFPPSDEQLKSGTASVVCLLNNFYPREAKVQWKVDNALQSGNSQESVTEQDSKDSTYSLSSTLTLSKADYEKHKVYACEVTHQGLSSPVTKSFNRGEC heavy 2: QVQLVQSGAEVKKPGASVTVSCKASGYTFTDYEMHWIRQPPGEGLEWIGAIDGPTPDTAYSEKFKGRVTLTADKSTSTAYMELSSLTSEDTAVYYCTRFYSYTYWGQGTLVTVSSASTKGPSVFPLAPSSKSTSGGTAALGCLVKDYFPEPVTVSWNSGALTSGVHTFPAVLQSSGLYSLSSVVTVPSSSLGTQTYICNVNHKPSNTKVDKKVEPKSCDKTHTCPPCPAPELRGGPKVFLFPPKPKDTLMISRTPEVTCVVVDVSHEDPEVKFNWYVDGVEVHNAKTKPREEQYASTYRVVSVLTVLHQDWLNGKEYKCKVSNKALPAPIEKTISKAKGQPREPQVYTLPPSREEMTKNQVSLTCLVKGFYPSDIAVEWESNGQPENNYKTTPPYLDSDGSFFLYSKLTVDKSRWQQGNVFSCSVMHEALHNHYTQESLSLSP light 2: DIVMTQSPLSLPVTPGEPASISCRSSQPLVHSNRNTYLHWYQQKPGQAPRLLIYKVSNRFSGVPDRFSGSGSGTDFTLKISRVEAEDVGVYYCGQGTQVPYTFGQGTKLEIKRTVAAPSVFIFPPSDEQLKSGTASVVCLLNNFYPREAKVQWKVDNALQSGNSQESVTEQDSKDSTYSLSSTLTLSKADYEKHKVYACEVTHQGLSSPVTKSFNRGEC",1.5,2.2
"ANuPA27/GLS//GCH065 (bispecific antibody, human IgG1, kappa, N297A) heavy 1: QDGNEEMGGITQTPYKVSISGTTVILTLSGRSDNHQVQLVESGGGLVQPGRSLRLSCAASGFTFSNAWMHWVRQAPGKGLEWVAQIKDKANGYNAYYAESVKGRFTISRDDSKNSIYLQMNSLKTEDTAVYYCRYVHYTTYAGFSYKFGVDAWGQGTTVTVSSASTKGPSVFPLAPSSKSTSGGTAALGCLVKDYFPEPVTVSWNSGALTSGVHTFPAVLQSSGLYSLSSVVTVPSSSLGTQTYICNVNHKPSNTKVDKKVEPKSCDKTHTCPPCPAPELRGGPKVFLFPPKPKDTLMISRTPEVTCVVVDVSHEDPEVKFNWYVDGVEVHNAKTKPREEQYASTYRVVSVLTVLHQDWLNGKEYKCKVSNKALPAPIEKTISKAKGQPREPQVYTLPPSRKEMTKNQVSLTCLVKGFYPSDIAVEWESNGQPENNYKTTPPYLDSDGSFFLYSKLTVDKSRWQQGNVFSCSVMHEALHNHYTQKSLSLSP light 1: DIVMTQSPLSLPVTPGEPASISCRSSQSLVHSNRNTYLHWYQQKPGQAPRLLIYKVSNRFSGVPDRFSGSGSGTDFTLKISRVEAEDVGVYYCGQGTQVPYTFGQGTKLEIKRTVAAPSVFIFPPSDEQLKSGTASVVCLLNNFYPREAKVQWKVDNALQSGNSQESVTEQDSKDSTYSLSSTLTLSKADYEKHKVYACEVTHQGLSSPVTKSFNRGEC heavy 2: QVQLVQSGAEVKKPGASVTVSCKASGYTFTDYEMHWIRQPPGEGLEWIGAIDGPTPDTAYSEKFKGRVTLTADKSTSTAYMELSSLTSEDTAVYYCTRFYSYTYWGQGTLVTVSSASTKGPSVFPLAPSSKSTSGGTAALGCLVKDYFPEPVTVSWNSGALTSGVHTFPAVLQSSGLYSLSSVVTVPSSSLGTQTYICNVNHKPSNTKVDKKVEPKSCDKTHTCPPCPAPELRGGPKVFLFPPKPKDTLMISRTPEVTCVVVDVSHEDPEVKFNWYVDGVEVHNAKTKPREEQYASTYRVVSVLTVLHQDWLNGKEYKCKVSNKALPAPIEKTISKAKGQPREPQVYTLPPSREEMTKNQVSLTCLVKGFYPSDIAVEWESNGQPENNYKTTPPYLDSDGSFFLYSKLTVDKSRWQQGNVFSCSVMHEALHNHYTQESLSLSP light 2: DIVMTQSPLSLPVTPGEPASISCRSSQPLVHSNRNTYLHWYQQKPGQAPRLLIYKVSNRFSGVPDRFSGSGSGTDFTLKISRVEAEDVGVYYCGQGTQVPYTFGQGTKLEIKRTVAAPSVFIFPPSDEQLKSGTASVVCLLNNFYPREAKVQWKVDNALQSGNSQESVTEQDSKDSTYSLSSTLTLSKADYEKHKVYACEVTHQGLSSPVTKSFNRGEC",0.9,0.9
"hCE115HA/GLSGS//GCH065 (bispecific antibody, human IgG1, kappa, N297A) heavy 1: QVQLVESGGGVVQPGRSLRLSCAASGFTFSNAWMHWVRQAPGKGLEWVAQIKAKSNNYATYYAESVKGRFTISRDDSKNSLYLQMNSLKTEDTAVYYCRYVHYGAYYGVDAWGQGTTVTVSSASTKGPSVFPLAPSSKSTSGGTAALGCLVKDYFPEPVTVSWNSGALTSGVHTFPAVLQSSGLYSLSSVVTVPSSSLGTQTYICNVNHKPSNTKVDKKVEPKSCDKTHTCPPCPAPELRGGPKVFLFPPKPKDTLMISRTPEVTCVVVDVSHEDPEVKFNWYVDGVEVHNAKTKPREEQYASTYRVVSVLTVLHQDWLNGKEYKCKVSNKALPAPIEKTISKAKGQPREPQVYTLPPSRKEMTKNQVSLTCLVKGFYPSDIAVEWESNGQPENNYKTTPPYLDSDGSFFLYSKLTVDKSRWQQGNVFSCSVMHEALHNHYTQKSLSLSP light 1: QDGNEGGGSGGGSGGGSDIVMTQSPLSLPVTPGEPASISCRSSQSLVHSNRNTYLHWYQQKPGQAPRLLIYKVSNRFSGVPDRFSGSGSGTDFTLKISRVEAEDVGVYYCGQGTQVPYTFGQGTKLEIKRTVAAPSVFIFPPSDEQLKSGTASVVCLLNNFYPREAKVQWKVDNALQSGNSQESVTEQDSKDSTYSLSSTLTLSKADYEKHKVYACEVTHQGLSSPVTKSFNRGEC heavy 2: QVQLVQSGAEVKKPGASVTVSCKASGYTFTDYEMHWIRQPPGEGLEWIGAIDGPTPDTAYSEKFKGRVTLTADKSTSTAYMELSSLTSEDTAVYYCTRFYSYTYWGQGTLVTVSSASTKGPSVFPLAPSSKSTSGGTAALGCLVKDYFPEPVTVSWNSGALTSGVHTFPAVLQSSGLYSLSSVVTVPSSSLGTQTYICNVNHKPSNTKVDKKVEPKSCDKTHTCPPCPAPELRGGPKVFLFPPKPKDTLMISRTPEVTCVVVDVSHEDPEVKFNWYVDGVEVHNAKTKPREEQYASTYRVVSVLTVLHQDWLNGKEYKCKVSNKALPAPIEKTISKAKGQPREPQVYTLPPSREEMTKNQVSLTCLVKGFYPSDIAVEWESNGQPENNYKTTPPYLDSDGSFFLYSKLTVDKSRWQQGNVFSCSVMHEALHNHYTQESLSLSP light 2: DIVMTQSPLSLPVTPGEPASISCRSSQPLVHSNRNTYLHWYQQKPGQAPRLLIYKVSNRFSGVPDRFSGSGSGTDFTLKISRVEAEDVGVYYCGQGTQVPYTFGQGTKLEIKRTVAAPSVFIFPPSDEQLKSGTASVVCLLNNFYPREAKVQWKVDNALQSGNSQESVTEQDSKDSTYSLSSTLTLSKADYEKHKVYACEVTHQGLSSPVTKSFNRGEC",1,0.9
